Reference: US20250313625A1 (ELPISCIENCE SUZHOU BIOPHARMA, published 2025)

Experiments:
[1] = biological target: T1, human LAG3 (form used in Octet, Biacore and HDX-MS not given) (human, UniProt P18627 23-450, limits assumed); experiment: SPR (Biacore), 1:1 fit
T1 sequence (looked up): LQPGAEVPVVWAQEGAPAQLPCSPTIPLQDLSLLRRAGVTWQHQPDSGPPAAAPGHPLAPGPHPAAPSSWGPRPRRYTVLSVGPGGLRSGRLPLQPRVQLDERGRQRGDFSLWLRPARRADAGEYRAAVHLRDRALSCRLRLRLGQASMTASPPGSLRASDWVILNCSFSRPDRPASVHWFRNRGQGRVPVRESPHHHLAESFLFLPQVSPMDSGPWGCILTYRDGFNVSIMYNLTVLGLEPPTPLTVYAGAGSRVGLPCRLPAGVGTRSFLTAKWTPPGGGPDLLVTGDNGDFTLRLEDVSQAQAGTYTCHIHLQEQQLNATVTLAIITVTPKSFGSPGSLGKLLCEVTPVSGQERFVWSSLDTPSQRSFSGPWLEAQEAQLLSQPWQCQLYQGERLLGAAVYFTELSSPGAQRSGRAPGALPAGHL
Description: The association and dissociation curves were fit with 1:1 binding model, and the Ka/Kd/KD values for each antibody were calculated.

[2] = biological target: T2, mFc tagged human LAG3 ECD recombinant protein (human, UniProt P18627 23-450); experiment: competitive FACS: mFc-LAG3 ECD binding to Raji cells (MHC II)
T2 construct: extracellular domain; purchased from Biointron; not shown: mouse IgG Fc (mFc) tag
T2 sequence (looked up): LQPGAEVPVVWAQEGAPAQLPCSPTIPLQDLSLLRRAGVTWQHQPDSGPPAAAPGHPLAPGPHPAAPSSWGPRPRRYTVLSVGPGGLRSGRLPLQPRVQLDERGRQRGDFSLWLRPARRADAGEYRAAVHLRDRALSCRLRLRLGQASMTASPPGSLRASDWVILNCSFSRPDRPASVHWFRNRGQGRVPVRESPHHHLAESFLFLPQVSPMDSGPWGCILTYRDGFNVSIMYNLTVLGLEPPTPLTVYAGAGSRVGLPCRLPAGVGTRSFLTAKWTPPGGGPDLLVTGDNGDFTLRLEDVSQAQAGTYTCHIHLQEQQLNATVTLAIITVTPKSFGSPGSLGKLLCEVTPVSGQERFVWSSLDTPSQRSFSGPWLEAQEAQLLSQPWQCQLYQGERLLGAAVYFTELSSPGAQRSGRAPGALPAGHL
Description: Activity of the purified chimeric antibodies to block LAG3 and MHC II interaction was determined by competitive FACS assay. […] After washing, dye labeled anti-mouse Fc 2nd antibody (Sigma) was added and incubated at 37° C. for 1 hour. Fluorescence intensity was detected.

[3] = biological target: T3, human LAG3 ECD recombinant protein (plate coated, tag not stated) (human, UniProt P18627 23-450); experiment: competitive ELISA format I: His-FGL1 binding to coated LAG3 ECD
T3 construct: extracellular domain
T3 sequence (looked up): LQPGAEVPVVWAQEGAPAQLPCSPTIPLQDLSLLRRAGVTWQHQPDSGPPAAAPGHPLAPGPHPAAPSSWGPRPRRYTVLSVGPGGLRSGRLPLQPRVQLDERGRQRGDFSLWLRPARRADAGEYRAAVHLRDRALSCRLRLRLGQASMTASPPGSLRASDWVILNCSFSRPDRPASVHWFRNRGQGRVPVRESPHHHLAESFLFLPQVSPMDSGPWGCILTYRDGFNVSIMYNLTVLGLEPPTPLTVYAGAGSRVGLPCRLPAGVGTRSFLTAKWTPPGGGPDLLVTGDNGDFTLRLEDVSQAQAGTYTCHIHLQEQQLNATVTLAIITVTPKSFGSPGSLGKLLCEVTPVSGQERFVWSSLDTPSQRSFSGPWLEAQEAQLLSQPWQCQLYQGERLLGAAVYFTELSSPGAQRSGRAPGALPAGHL

[4] = biological target: T4, human LAG3, full length, stably expressed on cells (human, UniProt P18627 23-525); experiment: competitive FACS format III: His-FGL1 binding to 293F-human LAG3 cells
T4 construct: whole, on cells; also called CHOK1-human LAG3
T4 sequence (looked up): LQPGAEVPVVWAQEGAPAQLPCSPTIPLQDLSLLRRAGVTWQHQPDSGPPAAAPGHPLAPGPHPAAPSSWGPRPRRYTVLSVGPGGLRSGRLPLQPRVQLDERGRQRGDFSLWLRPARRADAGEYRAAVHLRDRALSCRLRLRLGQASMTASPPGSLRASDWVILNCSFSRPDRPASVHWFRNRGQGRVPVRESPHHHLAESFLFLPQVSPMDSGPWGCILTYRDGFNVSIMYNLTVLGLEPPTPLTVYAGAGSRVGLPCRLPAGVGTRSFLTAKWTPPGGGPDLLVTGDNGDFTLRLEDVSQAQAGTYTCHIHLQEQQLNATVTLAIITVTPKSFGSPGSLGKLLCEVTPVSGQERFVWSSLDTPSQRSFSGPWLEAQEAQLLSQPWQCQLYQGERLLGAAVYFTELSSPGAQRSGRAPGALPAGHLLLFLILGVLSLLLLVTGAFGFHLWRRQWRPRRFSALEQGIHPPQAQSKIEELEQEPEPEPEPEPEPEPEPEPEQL
Description: (§1) After washing, HRP labeled anti-His 2nd antibody (Sigma) was added and incubated at 37° C. for 1 hour. Then, 100 μl/well of TMB solution (Biotechnology) was added. After incubation for 15 minutes at room temperature, the reaction was stopped by the addition of 50 μl of 1N HCl. OD 450 nm was read. […] After washing, HRP labeled anti-SA 2nd antibody (Sigma) was added and incubated at 37° C. for 1 hour. Then, 100 μl/well of TMB solution (Biotechnology) was added. After incubation for 15 minutes at room temperature, the reaction was stopped by the addition of 50 μl of 1N HCl. OD 450 nm was read. […] The competition assay of format III is a competitive FACS assay. […] After washing, dye labeled anti-His 2nd antibody (Sigma) was added and incubated at 37° C. for 1 hour. Fluorescence intensity was detected.

[5] = biological target: T4, human LAG3, full length, stably …; experiment: FACS on 293F cells stably expressing human LAG3
Description: Briefly the antibodies were incubated with 2×10⁵ target cells at 4° C. for 1 hour. After washing, fluorescence labeled anti-mouse IgG 2nd antibody (Life Technologies) was added and incubated at 4° C. for 1 hour. Geometric median fluorescence intensity (MFI) was detected and EC₅₀ was calculated using GraphPad Prism9.0.
MFI was detected and EC₅₀ was calculated using GraphPad Prism9.0.

[6] = biological target: T1, human LAG3 (form used in Octet, Biacore …); experiment: BLI (Octet), 1:1 fit
Description: The purified chimeric antibodies were characterized for binding affinity against human LAG3 using Bio-Layer Interferometry technology (Octet system). The association and dissociation curves were fit with 1:1 binding model, and the Ka/Kd/KD values for each antibody were calculated.

[7] = biological target: T1, human LAG3 (form used in Octet, Biacore …); experiment: BLI (Octet)
[8] = biological target: T5, hFc tagged human LAG3 ECD recombinant protein (human, UniProt P18627 23-450); experiment: competitive ELISA format II: biotin hFc-LAG3 ECD binding to coated His-FGL1
T5 construct: range 23-450; also called biotin labelled hFc tagged human LAG3 ECD; not shown: human IgG Fc tag
T5 sequence (looked up): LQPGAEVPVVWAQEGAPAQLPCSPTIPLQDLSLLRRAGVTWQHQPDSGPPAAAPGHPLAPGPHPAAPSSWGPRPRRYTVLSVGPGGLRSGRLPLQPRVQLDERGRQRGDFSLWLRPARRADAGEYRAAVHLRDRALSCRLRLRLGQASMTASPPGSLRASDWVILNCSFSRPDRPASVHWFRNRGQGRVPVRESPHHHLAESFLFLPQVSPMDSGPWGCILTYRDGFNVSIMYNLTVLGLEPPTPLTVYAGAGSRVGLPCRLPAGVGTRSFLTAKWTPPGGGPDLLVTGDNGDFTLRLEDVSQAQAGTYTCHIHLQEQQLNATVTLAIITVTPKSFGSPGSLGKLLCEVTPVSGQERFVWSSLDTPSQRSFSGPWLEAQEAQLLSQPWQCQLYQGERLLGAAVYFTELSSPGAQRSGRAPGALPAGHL
Description: as §1

B1: 023c (antibody, human IgG4, V domains shown)
VH: QIQLVQSGPVLKKPGETVKISCKASGYTFTESPMNWVKQAPGRGFKWMGMIYTDTGEPTYAEEFKGRFAFSLETSASTAYLQINNLKSEDTATYFCVSDYGSILYWYFDVWGTGTTVTVSS
VL: DIVMTQSHKFMSTSVGDRVSITCKASQDVSTAVAWYQQTPGQSPKLLIYSASYRYTGVPDRFTGSGSGTDFTFTISSVQAEDLAVYYCQQHYNSPPTFGAGTKLELK
notes: human IgG4 S228P / kappa chimeric antibody; also called chimeric antibody 023; ES005-023c; not shown: human kappa light chain constant region (pcDNA3.4-hIgGk vector)
With B1 the Kd [1] was 0.0775 nM, the koff [1] was 0.000441 s⁻¹ and the kon [1] was 5.68e+06 M⁻¹ s⁻¹. The IC50 [2] was 3.7 nM, the “TOP blocking (%)” value [2] was 94.6% and the “Blocking ratio at 66.7 nM (%)” value [3] was 52.9%. For the same binder, the “Blocking ratio at 200 nM (%)” value [4] was 29%, the EC50 [5] was 0.26 nM and the “TOP MFI” value [5] was 3430. It also gave a Kd [6] of 0.648 nM, a koff [6] of 0.000233 s⁻¹ and a kon [6] of 359000 M⁻¹ s⁻¹. For the same binder, the Kd [7] was 0.456 nM, the koff [7] was 0.000161 s⁻¹ and the kon [7] was 352000 M⁻¹ s⁻¹. The IC50 [8] was 1.47 nM and the “TOP blocking (%)” value [8] was 86.8%.
